For this experiment, the target named is T1, human complement component C5 (human, UniProt P01031 19-673; P01031 678-1676).
T1 construct: Purified human C5 was amine-coupled to a CM3 sensor chip for SPR; In the CH50 assay the C5 is the one present in pooled normal human serum; Native C5 is a disulphide-linked two-chain protein made from one precursor; also called human C5
Briefly: SPR (BIAcore 2000, 25 C), human C5 amine-coupled to a CM3 chip, Coversin injected at 0-96 nM, global Langmuir fit. Background: Surface plasmon resonance follows binding to a sensor surface in real time, without labels.

T1 sequence (P01031 19-673 limits assumed, chain 1 of 2): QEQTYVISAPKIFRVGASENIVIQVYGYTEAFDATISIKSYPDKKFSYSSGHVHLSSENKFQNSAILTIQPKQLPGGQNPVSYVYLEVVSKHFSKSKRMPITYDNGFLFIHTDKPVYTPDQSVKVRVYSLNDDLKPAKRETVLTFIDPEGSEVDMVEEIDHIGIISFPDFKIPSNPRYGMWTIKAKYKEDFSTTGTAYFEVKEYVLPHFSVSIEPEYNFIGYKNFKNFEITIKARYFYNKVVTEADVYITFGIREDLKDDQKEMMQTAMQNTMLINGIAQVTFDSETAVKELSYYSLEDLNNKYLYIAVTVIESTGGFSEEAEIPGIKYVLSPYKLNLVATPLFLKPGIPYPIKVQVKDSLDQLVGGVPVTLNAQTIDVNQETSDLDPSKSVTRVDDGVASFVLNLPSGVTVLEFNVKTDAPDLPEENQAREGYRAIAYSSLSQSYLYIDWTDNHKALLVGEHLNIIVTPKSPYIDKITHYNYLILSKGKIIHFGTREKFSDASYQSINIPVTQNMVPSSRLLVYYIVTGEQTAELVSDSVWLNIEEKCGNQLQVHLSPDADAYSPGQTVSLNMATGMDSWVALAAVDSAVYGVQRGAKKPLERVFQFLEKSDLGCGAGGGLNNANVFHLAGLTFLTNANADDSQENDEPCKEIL
T1 sequence (P01031 678-1676 limits assumed, chain 2 of 2): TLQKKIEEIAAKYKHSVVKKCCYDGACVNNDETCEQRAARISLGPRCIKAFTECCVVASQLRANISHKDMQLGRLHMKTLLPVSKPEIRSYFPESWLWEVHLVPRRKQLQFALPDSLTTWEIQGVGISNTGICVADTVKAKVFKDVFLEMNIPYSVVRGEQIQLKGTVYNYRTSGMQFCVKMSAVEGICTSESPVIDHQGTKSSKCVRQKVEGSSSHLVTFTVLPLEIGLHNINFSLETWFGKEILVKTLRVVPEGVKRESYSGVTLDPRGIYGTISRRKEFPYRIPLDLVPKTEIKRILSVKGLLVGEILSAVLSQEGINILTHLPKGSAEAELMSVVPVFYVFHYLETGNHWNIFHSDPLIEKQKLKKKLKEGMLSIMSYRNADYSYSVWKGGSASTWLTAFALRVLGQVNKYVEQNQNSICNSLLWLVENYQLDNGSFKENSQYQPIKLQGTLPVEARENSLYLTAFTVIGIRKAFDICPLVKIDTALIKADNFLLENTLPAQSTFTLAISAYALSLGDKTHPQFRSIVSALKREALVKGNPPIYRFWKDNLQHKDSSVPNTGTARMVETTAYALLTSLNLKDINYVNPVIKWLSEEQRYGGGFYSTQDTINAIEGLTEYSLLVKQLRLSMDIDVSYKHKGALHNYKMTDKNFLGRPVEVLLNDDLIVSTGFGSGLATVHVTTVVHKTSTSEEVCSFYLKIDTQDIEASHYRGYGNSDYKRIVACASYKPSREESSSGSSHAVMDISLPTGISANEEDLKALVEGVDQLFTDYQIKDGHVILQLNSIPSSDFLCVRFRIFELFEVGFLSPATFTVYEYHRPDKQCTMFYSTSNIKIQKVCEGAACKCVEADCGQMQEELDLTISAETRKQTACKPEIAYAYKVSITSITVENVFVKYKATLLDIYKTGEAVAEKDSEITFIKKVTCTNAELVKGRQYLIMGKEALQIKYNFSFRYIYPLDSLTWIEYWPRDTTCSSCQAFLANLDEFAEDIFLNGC

B1: wild type Coversin (Ornithodoros moubata) (other)
chain: DSESDCTGSEPVDAFQAFSEGKEAYVLVRSTDPKARDCLKGEPAGEKQDNTLPVMMTFKNGTDWASTDWTFTLDGAKVTATLGNLTQNREVVYDSQSHHCHVDKVEKEVPDYEMWMLDAGGLEVEVECCRQKLEELASGRNQMYPHLKDC
notes: also called Coversin wild type; unmodified Coversin polypeptide
Broadly, the Kd is the concentration at which binding is half-saturated. Higher therefore signals weaker binding. On to B1, for which the Kd is 1.45 nM.

These data come from US20200385434A1 (VOLUTION IMMUNO PHARMACEUTICALS, published 2020).
